Experimental data published in publication PMC4072508, “Genome-Wide Prediction and Validation of Peptides That Bind Human Prosurvival Bcl-2 Proteins” (PLoS Computational Biology, 2014).
Where two headings read alike, the source gives them in different places.

Columns and labels:
Mcl-1 [1] = target: T1, Mcl-1 (Homo sapiens, UniProt Q07820); conditions: cited from earlier work
T1 construct: myc-Mcl-1 SPOT array & FP; made in house
Source text: Negative control mutatio ...

Bcl-xL = target: T2, Bcl-xL (Homo sapiens, UniProt Q07817); experiment: LUMIER full-length protein interaction; type: binding; conditions: LUMIER results for Bcl-xL; for z-score 1.1: experiment 1, duplicate 1; for z-score 2.1: experiment 2, duplicate 1; for z-score 2.2: experiment 2, duplicate 2; for z-score 1.2: experiment 1, duplicate 2
T2 construct: myc-Bcl-xL SPOT array & FP; made in house
Protocol: (§1) The LUMIER assay was carried out as previously described with the following modifications. A stable cell line expressing receptor tagged on the N-terminus with Nanoluc luciferase was created (the prey). […] Each bait construct was transfected into the receptor-luciferase cells in a 96-well format and after 48 hours the cells were lysed and transferred to 384-well plates coated with anti-FLAG. After incubation and washing, luminescence was measured to quantify how much receptor-luciferase was captured by the bait protein. Anti-Flag ELISA signal was used to exclude bait proteins that were not expressed. The experiment was carried out two times, each in duplicate.

Mcl-1 [2] = target: T1, Mcl-1; experiment: LUMIER full-length protein interaction; type: binding; conditions: LUMIER results for Mcl-1, Z-score relative to Gaussian fit of the data; for z-score 1.2: experiment 1, duplicate 2; for z-score 2.1: experiment 2, duplicate 1; for z-score 2.2: experiment 2, duplicate 2
Protocol: as §1

[3] = read-out: Binder class, Mcl-1, natural BH3 peptides, interactions taken from literature
[4] = read-out: KD, Mcl-1, previously reported
[5] = read-out: Binder class, Mcl-1, S1 Bim variants, specific binding measured using yeast display, ref Dutta et al. (2010)
[6] = Z-score relative to Gaussian fit of the data
[7] = Z-score of the interaction relative to the Gaussian fit of the data

T2 sequence (Q07817 with tags, fused parts or gaps): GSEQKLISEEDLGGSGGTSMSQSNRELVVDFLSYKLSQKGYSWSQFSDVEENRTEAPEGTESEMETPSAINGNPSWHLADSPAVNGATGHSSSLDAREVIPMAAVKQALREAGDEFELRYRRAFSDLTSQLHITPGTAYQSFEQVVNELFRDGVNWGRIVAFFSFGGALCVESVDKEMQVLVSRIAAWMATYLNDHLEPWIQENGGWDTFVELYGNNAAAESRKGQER
T1 sequence (Q07820 with tags, fused parts or gaps): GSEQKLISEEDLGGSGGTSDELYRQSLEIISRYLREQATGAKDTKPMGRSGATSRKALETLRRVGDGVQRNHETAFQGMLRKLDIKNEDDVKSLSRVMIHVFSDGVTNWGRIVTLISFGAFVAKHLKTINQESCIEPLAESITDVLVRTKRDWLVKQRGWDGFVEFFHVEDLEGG

Substance: AAQLTAARLKALGDELHQRTMWR [Hrk]
- Kd (Mcl-1 [1]; [3]): > 10000 nM

Substance: AAQRYGRELRRMSDEFVDSFKKG (LWAAQRYGRELRRMSDEFVDSFKKGL) [Bad]
- Kd (Mcl-1 [1]; [3]): < 1000 nM
- Kd (Mcl-1 [1]; [4]): > 2500 nM

Substance: AEVQIARKLQCIADQFHRLHVQQ (HQAEVQIARKLQCIADQFHRLHVQQH) [Bmf]
- Kd (Mcl-1 [1]; [3]): > 10000 nM

Substance: EGEKEVEALKKSADWVSDWSSRP (VVEGEKEVEALKKSADWVSDWSSRPE) [BNIP3L]
- Kd (Mcl-1 [1]; [3]): > 10000 nM
- Kd (Mcl-1 [1]; [4]): > 2500 nM

Substance: IIRNIARHLAQVGDSMDRSIPPG (EDIIRNIARHLAQVGDSMDRSIPPGL) [Bid]
- Kd (Mcl-1 [1]; [3]): < 1000 nM

Substance: LEVECATQLRRFGDKLNFRQKLL (AELEVECATQLRRFGDKLNFRQKLLN) [Noxa]
- Kd (Mcl-1 [1]; [3]): > 10000 nM

Substance: MTQEVGQLLQDMGDDVYQQYRSL (GVMTQEVGQLLQDMGDDVYQQYRSLT) [Mule]
- Kd (Mcl-1 [1]; [3]): > 10000 nM

Substance: PEIWAAQEIRRIGDENNAYYARR
- Kd (Mcl-1 [1]; [5]): < 1000 nM

Substance: PEIWAAQEIRRIGDESNAYYARR
- Kd (Mcl-1 [1]; [5]): < 1000 nM

Substance: PEIWDAQELGRIGDEVNAYYARR
- Kd (Mcl-1 [1]; [5]): < 1000 nM

Substance: PEIWFAQEARRYGDEFNAYYARR
- Kd (Mcl-1 [1]; [5]): > 10000 nM

Substance: PEIWFAQEFSRIGDEVNAYYARR
- Kd (Mcl-1 [1]; [5]): < 1000 nM

Substance: PEIWFAQEIDRIGDEVNAYYARR
- Kd (Mcl-1 [1]; [5]): < 1000 nM

Substance: PEIWFAQEIERIGDEVNAYYARR
- Kd (Mcl-1 [1]; [5]): < 1000 nM

Substance: PEIWFAQEIRRDGDEFNAYYARR
- Kd (Mcl-1 [1]; [5]): > 10000 nM

Substance: PEIWFAQELKRFGDEANAYYARR
- Kd (Mcl-1 [1]; [5]): > 10000 nM

Substance: PEIWFAQELKRNGDEYNAYYARR
- Kd (Mcl-1 [1]; [5]): > 10000 nM

Substance: PEIWFAQELRRDGDEFNAYYARR
- Kd (Mcl-1 [1]; [5]): > 10000 nM

Substance: PEIWFAQELRRDGDEYNAYYARR
- Kd (Mcl-1 [1]; [5]): > 10000 nM

Substance: PEIWFAQELSRNGDEFNAYYARR
- Kd (Mcl-1 [1]; [5]): > 10000 nM

Substance: PEIWFAQELSRYGEEYNAYYARR
- Kd (Mcl-1 [1]; [5]): > 10000 nM

Substance: PEIWFAQEVGRIGDEINAYYARR
- Kd (Mcl-1 [1]; [5]): < 1000 nM

Substance: PEIWFAQEVGRIGDEVNAYYARR
- Kd (Mcl-1 [1]; [5]): < 1000 nM

Substance: PEIWFAQEVNRIGDEVNAYYARR
- Kd (Mcl-1 [1]; [5]): > 10000 nM

Substance: PEIWIAQEFQRAGDEYNAYYARR
- Kd (Mcl-1 [1]; [5]): > 10000 nM

Substance: PEIWIAQEFQRNGDEYNAYYARR
- Kd (Mcl-1 [1]; [5]): > 10000 nM

Substance: PEIWIAQEIDRIGDEFNAYYARR
- Kd (Mcl-1 [1]; [5]): < 1000 nM

Substance: PEIWIAQEIDRIGDETNAYYARR
- Kd (Mcl-1 [1]; [5]): < 1000 nM

Substance: PEIWIAQEIDRIGDEVNAYYARR
- Kd (Mcl-1 [1]; [5]): < 1000 nM

Substance: PEIWIAQEIDRIGNEINAYYARR
- Kd (Mcl-1 [1]; [5]): < 1000 nM

Substance: PEIWIAQEIGRIGDETNAYYARR
- Kd (Mcl-1 [1]; [5]): < 1000 nM

Substance: PEIWIAQEIGRIGNEVNAYYARR
- Kd (Mcl-1 [1]; [5]): < 1000 nM

Substance: PEIWIAQEIGRTGDEVNAYYARR
- Kd (Mcl-1 [1]; [5]): < 1000 nM

Substance: RBL1 (WTLFVYTKGNFRMIGDDLVNSYHLLL)
- z-score 1.1 (Bcl-xL; [6]): 5.112
- z-score 2.1 (Bcl-xL; [6]): 2.327
- z-score 2.2 (Bcl-xL; [6]): 1.895
- z-score 1.2 (Mcl-1 [2]): 0.3355
- z-score 2.1 (Mcl-1 [2]): 1.744
- z-score 2.2 (Mcl-1 [2]): 0.6936

Substance: RNF160 (WLKGDILGEKLVNLADCLCNEDLESR)
- z-score 1.1 (Bcl-xL; [6]): -0.1237
- z-score 1.2 (Bcl-xL; [6]): 0.7519
- z-score 2.1 (Bcl-xL; [6]): 2.286
- z-score 2.2 (Bcl-xL; [6]): 3.519
- z-score 1.2 (Mcl-1 [2]): 0.2603
- z-score 2.2 (Mcl-1 [2]): -0.3716

Substance: SGCA (LFWTPLLVVLLAGLGDTEAQQTTLHP)
- z-score 1.1 (Bcl-xL; [6]): 1.122
- z-score 1.2 (Bcl-xL; [6]): 0.5458
- z-score 2.1 (Bcl-xL; [6]): 0.3748
- z-score 2.2 (Bcl-xL; [6]): 0.07051
- z-score 1.2 (Mcl-1 [2]): 1.007
- z-score 2.1 (Mcl-1 [2]): 0.04852
- z-score 2.2 (Mcl-1 [2]): -0.477

Substance: SIPA1 (TAGLRPGARLLRVCGQTLPSLRPEAA)
- z-score 1.1 (Bcl-xL; [6]): 0.6815
- z-score 2.1 (Bcl-xL; [6]): 3.9688
- z-score 2.2 (Bcl-xL; [6]): 2.046
- z-score 1.2 (Mcl-1 [2]): 0.6268
- z-score 2.1 (Mcl-1 [2]): -0.03415
- z-score 2.2 (Mcl-1 [2]): -0.3116

Substance: SMPD2 (PYLSKHRADRMRRLGDFLNQESFDLA)
- z-score 1.1 (Bcl-xL; [6]): -0.2083
- z-score 1.2 (Bcl-xL; [6]): 2.876
- z-score 2.1 (Bcl-xL; [6]): -0.2736
- z-score 2.2 (Bcl-xL; [6]): 2.724
- z-score 1.2 (Mcl-1 [2]): -0.1967
- z-score 2.1 (Mcl-1 [2]): -0.5316
- z-score 2.2 (Mcl-1 [2]): -0.9514

Substance: STK11IP (DSLLWKLAGLLRESGDVVLSGCSTLS)
- z-score 1.1 (Bcl-xL; [6]): -2.105
- z-score 1.2 (Bcl-xL; [6]): -2.491
- z-score 2.1 (Bcl-xL; [6]): -0.2948
- z-score 2.2 (Bcl-xL; [6]): 0.7075
- z-score 1.2 (Mcl-1 [2]): 0.4828
- z-score 2.1 (Mcl-1 [2]): -0.9757
- z-score 2.2 (Mcl-1 [2]): -1.0129

Substance: TAP1 (MSILTIASAVLEFVGDGIYNNTMGHV)
- z-score 1.1 (Bcl-xL; [6]): 3.909
- z-score 1.2 (Bcl-xL; [6]): -0.1665
- z-score 2.1 (Bcl-xL; [6]): 0.7598
- z-score 2.2 (Bcl-xL; [6]): -0.2
- z-score 1.2 (Mcl-1 [2]): -0.7174
- z-score 2.1 (Mcl-1 [2]): 0.2302
- z-score 2.2 (Mcl-1 [2]): -0.2533

Substance: TMEM184C (SDIRDDISEQVRHVGRTVRGHPRKKL)
- z-score 1.1 (Bcl-xL; [6]): -0.516
- z-score 1.2 (Bcl-xL; [6]): -0.4557
- z-score 2.1 (Bcl-xL; [6]): 0.7398
- z-score 2.2 (Bcl-xL; [6]): 0.3954
- z-score 1.2 (Mcl-1 [2]): 0.404
- z-score 2.1 (Mcl-1 [2]): 2.487
- z-score 2.2 (Mcl-1 [2]): 1.818

Substance: TMEM214 (SFLSAHCASHLAWFGDSLTSLSQRLQ)
- z-score 1.1 (Bcl-xL; [6]): 0.1125
- z-score 1.2 (Bcl-xL; [6]): -0.2947
- z-score 2.1 (Bcl-xL; [6]): -0.2028
- z-score 2.2 (Bcl-xL; [6]): 0.228
- z-score 1.2 (Mcl-1 [2]): -0.396
- z-score 2.2 (Mcl-1 [2]): -0.9391

Substance: TTC31 (DLSSTFVSLALRKVGDWPLSARREKG)
- z-score 1.1 (Bcl-xL; [6]): 0.5842
- z-score 1.2 (Bcl-xL; [6]): 0.512
- z-score 2.1 (Bcl-xL; [6]): 0.1189
- z-score 2.2 (Bcl-xL; [6]): 0.4568
- z-score 1.2 (Mcl-1 [2]): -0.2499
- z-score 2.1 (Mcl-1 [2]): -0.5416
- z-score 2.2 (Mcl-1 [2]): -0.2181

Substance: WDR60 (GGRVKLVHSALIQLGDSLSHKGNEFW)
- z-score 1.1 (Bcl-xL; [7]): 4.105
- z-score 1.2 (Bcl-xL; [7]): 0.5337
- z-score 2.1 (Bcl-xL; [7]): -0.08078
- z-score 2.2 (Bcl-xL; [7]): 0.3897
- z-score 1.2 (Mcl-1 [2]): 0.5442
- z-score 2.1 (Mcl-1 [2]): 0.4209
- z-score 2.2 (Mcl-1 [2]): 0.563

Substance: WRAP53 (RKDAELLCWDLRQSGYPLWSLGREVT)
- z-score 1.1 (Bcl-xL; [6]): 0.8939
- z-score 1.2 (Bcl-xL; [6]): -0.01936
- z-score 2.1 (Bcl-xL; [6]): 1.1339
- z-score 2.2 (Bcl-xL; [6]): 1.068
- z-score 2.1 (Mcl-1 [2]): 1.332
- z-score 2.2 (Mcl-1 [2]): 1.084

Substance: ZNF295 (ERLKGQLCDVLLIVGDQKFRAHKNVL)
- z-score 1.1 (Bcl-xL; [6]): 0.6872
- z-score 1.2 (Bcl-xL; [6]): -1.979
- z-score 2.1 (Bcl-xL; [6]): 2.441
- z-score 2.2 (Bcl-xL; [6]): -0.4135
- z-score 1.2 (Mcl-1 [2]): 0.3792
- z-score 2.1 (Mcl-1 [2]): -0.9697
- z-score 2.2 (Mcl-1 [2]): 0.1208
